From publication PMC8879737
Where “and” joins values, the source holds several entries; their conditions need not be identical. Equal entries are not always repeated. Where two headings read alike, the source gives them in different places.

What was measured:
[1] = target: gE-2 t417 (HSV-2 strain 333); assay: SEC-MALS; Superdex 200, 10 mM HEPES, 150 mM NaCl, pH 7.5, 20 °C, 0.5 mL/min; 200 µg injected; conjugate analysis (protein and carbohydrate)
[2] = target: human whole molecule IgG (human); assay: SPR; Biacore 2000; human IgG Fc and human, rabbit, mouse, guinea pig whole IgG amine coupled to CM5 chips (854, 1348, 1094, 857, 1143 RU); gE monomers and gE/gI heterodimers at 750 μg/mL (Bac gE-1 t411 490 μg/mL) flowed at 30 μL/min in 0.01 M HEPES pH 7.4, 0.15 M NaCl, 0.005% P20; one concentration, RU at the end of association and of dissociation
[3] = target: human whole molecule IgG (human); assay: as above; remark: listed apart in the source
[4] = target: rabbit whole molecule IgG (rabbit); assay: as above
[5] = target: guinea pig whole molecule IgG (guinea pig); assay: as above
[6] = target: ChromePure human IgG Fc (human); assay: as above
[7] = target: ChromePure human IgG Fc (human); assay: as above; remark: listed apart in the source
[8] = target: rabbit whole molecule IgG (rabbit); assay: as above; remark: listed apart in the source

Q: With “gI-2 t262 (strain 333) (domain or fragment)” as the substance, how does the stoichiometry N [1] read?
A: 1

Q: Which results are given for gE-2 t417/gI-2 t262 (complex)?
A: RU post association [2]: 53 RU and 133 RU; RU post association [3]: 52 RU; RU post dissociation [3]: -2.1 RU; RU post association [4]: 46 RU; RU post dissociation [4]: -1.5 RU

Q: With gE-1 t419 (domain or fragment) as the substance, how does the RU post association [3] read?
A: 127 RU

Q: What about the RU post dissociation [3] of the same substance?
A: -1.9 RU

Q: What about the RU post association [4] of the same substance?
A: 188 RU

Q: What about the RU post dissociation [4] of the same substance?
A: 0.6 RU

Q: And the RU post association [5]?
A: 27 RU

Q: What about the RU post dissociation [5] of the same substance?
A: -2.4 RU

Q: gE-1 t419/gI-1 t269 (complex) was tested. Which RU post association [3] did it give?
A: 232 RU

Q: What about the RU post dissociation [3] of the same substance?
A: 189 RU

Q: And the RU post association [6]?
A: 216 RU

Q: What about the RU post dissociation [6] of the same substance?
A: 137 RU

Q: And the RU post association [4]?
A: 195 RU

Q: And the RU post dissociation [4]?
A: 170 RU

Q: What about the RU post association [5] of the same substance?
A: 19 RU

Q: And the RU post dissociation [5]?
A: 0.8 RU

Q: Which results are given for gE-2 t414/gI-2 t262 (complex)?
A: RU post association [3]: 79 RU; RU post dissociation [3]: -0.4 RU; RU post association [6]: 53 RU; RU post dissociation [6]: 0.6 RU; RU post association [4]: 75 RU; RU post dissociation [4]: -0.6 RU

Q: Which results are given for gE-2 t24-405/gI-2 t262 (complex)?
A: RU post association [3]: 136 RU; RU post dissociation [3]: 12 RU; RU post association [6]: 95 RU; RU post dissociation [6]: 6.6 RU; RU post association [4]: 142 RU; RU post dissociation [4]: 25 RU

Q: For Bac gE-1 t411 (domain or fragment), which RU post association [2] is on record?
A: 157 RU and 145 RU

Q: And the RU post association [7]?
A: 80 RU

Q: What about the RU post association [8] of the same substance?
A: 228 RU and 221 RU

Q: And the RU post association [3]?
A: 147 RU

Q: What about the RU post dissociation [3] of the same substance?
A: 32 RU

Q: What about the RU post association [6] of the same substance?
A: 77 RU

Q: What about the RU post association [4] of the same substance?
A: 231 RU

Q: And the RU post dissociation [4]?
A: 75 RU

Q: What about the RU post association [5] of the same substance?
A: 32 RU

Q: What about the RU post dissociation [5] of the same substance?
A: 3.3 RU

Q: Which results are given for gE-2 t405/gI-2 t262 (complex)?
A: RU post association [3]: 142 RU; RU post dissociation [3]: 14 RU; RU post association [6]: 100 RU; RU post dissociation [6]: 7.7 RU; RU post association [4]: 165 RU; RU post dissociation [4]: 34 RU
